Data taken from publication PMC8799719.

Target: insoluble type I collagen fibers from bovine achilles tendon, P02453;P02465
Test: fluorescence detection of EGFP fusion binding to collagen
Conditions: parent: est. 100; read off a plot

Row | Substance | percent of parent [%]
1 | EGFP-PPC (PPC domain of VhaC fused to EGFP) D751A | 3
2 | EGFP-PPC (PPC domain of VhaC fused to EGFP) E755A | 51
3 | EGFP-PPC (PPC domain of VhaC fused to EGFP) E778A | 21
4 | EGFP-PPC (PPC domain of VhaC fused to EGFP) K753A | 100
5 | EGFP-PPC (PPC domain of VhaC fused to EGFP) W729A | 58
6 | EGFP-PPC (PPC domain of VhaC fused to EGFP) W761A | 7
7 | EGFP-PPC (PPC domain of VhaC fused to EGFP) W770A | 100
8 | EGFP-PPC (PPC domain of VhaC fused to EGFP) W789A | 19
9 | EGFP-PPC (PPC domain of VhaC fused to EGFP) Y756A | 9
10 | EGFP-PPC (PPC domain of VhaC fused to EGFP) Y788A | 73
11 | EGFP-PPC (PPC domain of VhaC fused to EGFP) Y791A | 13

Target: insoluble type I collagen fibers from bovine achilles tendon, P02453;P02465
Test: fluorescence detection of EGFP fusion binding to collagen fibers
Conditions: parent: est. 100; read off a plot

Row | Substance | percent of parent [%]
12 | activator domain-EGFP (VhaC activator domain fused to EGFP) D207A | 70
13 | activator domain-EGFP (VhaC activator domain fused to EGFP) E294A | 85
14 | activator domain-EGFP (VhaC activator domain fused to EGFP) F107A | 20
15 | activator domain-EGFP (VhaC activator domain fused to EGFP) F160A | 86
16 | activator domain-EGFP (VhaC activator domain fused to EGFP) F286A | 51
17 | activator domain-EGFP (VhaC activator domain fused to EGFP) N290A | 88
18 | activator domain-EGFP (VhaC activator domain fused to EGFP) R153A | 32
19 | activator domain-EGFP (VhaC activator domain fused to EGFP) R293A | 93
20 | activator domain-EGFP (VhaC activator domain fused to EGFP) W234A | 69
21 | activator domain-EGFP (VhaC activator domain fused to EGFP) Y157A | 42
